Assay results: article PMC9482650, “Quantitative fragmentomics allow affinity mapping of interactomes” (Nature Communications, 2022)

Experiments:
Test in all cases: holdup assay
Set-up in all cases: key: below the threshold = too weak to quantify, mostly under pKd 3.1 to 4
RADIL, Q96JH8 = molecular target: T1, RADIL, Q96JH8
T1 sequence (Q96JH8 971-1071, limits assumed, looked up): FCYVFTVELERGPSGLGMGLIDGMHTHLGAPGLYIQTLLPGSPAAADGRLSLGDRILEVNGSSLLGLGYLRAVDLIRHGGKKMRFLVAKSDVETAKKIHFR

NHERF3_4, Q5T2W1 = molecular target: T2, NHERF3_4, Q5T2W1
T2 sequence (Q5T2W1 373-468, limits assumed, looked up): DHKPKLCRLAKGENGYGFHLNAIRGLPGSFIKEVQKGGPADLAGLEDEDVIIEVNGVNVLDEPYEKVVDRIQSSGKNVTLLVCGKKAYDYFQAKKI

GRIP1_3, Q9Y3R0 = molecular target: T3, GRIP1_3, Q9Y3R0
T3 sequence (Q9Y3R0 247-346, limits assumed, looked up): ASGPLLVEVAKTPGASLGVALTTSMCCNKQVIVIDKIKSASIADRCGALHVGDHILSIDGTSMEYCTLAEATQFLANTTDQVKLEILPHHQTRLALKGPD

MPP7, Q5T2T1 = molecular target: T4, MPP7, Q5T2T1
T4 sequence (Q5T2T1 134-230, limits assumed, looked up): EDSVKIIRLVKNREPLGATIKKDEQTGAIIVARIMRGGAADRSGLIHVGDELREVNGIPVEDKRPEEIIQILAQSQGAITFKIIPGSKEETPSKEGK

MAGI1_2, Q96QZ7 = molecular target: MAGI1_2, Q96QZ7
CASK, O14936 = molecular target: CASK, O14936
LNX1_3, Q8TBB1 = molecular target: LNX1_3, Q8TBB1
PCLO, Q9Y6V0 = molecular target: T5, PCLO, Q9Y6V0
T5 sequence (Q9Y6V0 4491-4600, limits assumed, looked up): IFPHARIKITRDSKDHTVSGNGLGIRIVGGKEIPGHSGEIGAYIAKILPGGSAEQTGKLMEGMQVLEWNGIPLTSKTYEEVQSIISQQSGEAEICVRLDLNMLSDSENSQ

GIPC2, Q8TF65 = molecular target: GIPC2, Q8TF65
LNX1_1, Q8TBB1 = molecular target: LNX1_1, Q8TBB1
MPP6, Q9NZW5 = molecular target: T6, MPP6, Q9NZW5
T6 sequence (Q9NZW5 125-219, limits assumed, looked up): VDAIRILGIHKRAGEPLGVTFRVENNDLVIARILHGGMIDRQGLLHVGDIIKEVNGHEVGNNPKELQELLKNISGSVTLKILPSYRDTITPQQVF

MAGI2_4, Q86UL8 = molecular target: MAGI2_4, Q86UL8
GORASP1, Q9BQQ3 = molecular target: GORASP1, Q9BQQ3
DLG4_3, P78352 = molecular target: DLG4_3, P78352
GRIP2_7, Q9C0E4 = molecular target: GRIP2_7, Q9C0E4
LAP2, Q96RT1 = molecular target: LAP2, Q96RT1
FRMPD2_1, Q68DX3 = molecular target: FRMPD2_1, Q68DX3
Inadl_2, Q8NI35 = molecular target: Inadl_2, Q8NI35
FRMPD2_3, Q68DX3 = molecular target: FRMPD2_3, Q68DX3
PDZD2_2, O15018 = molecular target: T7, PDZD2_2, O15018
T7 sequence (O15018 329-429, limits assumed, looked up): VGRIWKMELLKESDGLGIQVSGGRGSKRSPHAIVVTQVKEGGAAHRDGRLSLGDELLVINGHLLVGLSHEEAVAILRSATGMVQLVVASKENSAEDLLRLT

LIN7B, Q9HAP6 = molecular target: T8, LIN7B, Q9HAP6
T8 sequence (Q9HAP6 88-185, limits assumed, looked up): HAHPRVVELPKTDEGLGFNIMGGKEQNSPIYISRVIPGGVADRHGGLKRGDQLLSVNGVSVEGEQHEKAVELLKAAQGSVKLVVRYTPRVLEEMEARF

GRIP2_6, Q9C0E4 = molecular target: GRIP2_6, Q9C0E4
DLG1_1, Q12959 = molecular target: DLG1_1, Q12959
PDZD7_3, Q9H5P4 = molecular target: T9, PDZD7_3, Q9H5P4
T9 sequence (Q9H5P4 857-944, limits assumed, looked up): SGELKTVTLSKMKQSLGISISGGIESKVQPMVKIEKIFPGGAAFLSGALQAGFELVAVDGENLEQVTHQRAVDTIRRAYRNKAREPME

FRMPD2_2, Q68DX3 = molecular target: FRMPD2_2, Q68DX3
APBA1_2, Q02410 = molecular target: T10, APBA1_2, Q02410
T10 sequence (Q02410 742-832, limits assumed, looked up): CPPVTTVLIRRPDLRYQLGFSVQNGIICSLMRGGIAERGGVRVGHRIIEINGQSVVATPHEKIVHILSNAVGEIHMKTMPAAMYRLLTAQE

GRIP1_4, Q9Y3R0 = molecular target: T11, GRIP1_4, Q9Y3R0
T11 sequence (Q9Y3R0 467-571, limits assumed, looked up): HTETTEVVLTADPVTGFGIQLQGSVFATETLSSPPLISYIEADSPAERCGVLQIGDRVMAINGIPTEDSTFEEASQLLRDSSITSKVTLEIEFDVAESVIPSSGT

[1] = plain residues with an end cap or a label only (N-terminal biotin on a linker: ttds)
[2] = plain residues with an end cap or a label only (N-terminal biotin on a linker: ahx)

Measured: pKd

Sequence of GORASP1, Q9BQQ3 (Q9BQQ3 1-208): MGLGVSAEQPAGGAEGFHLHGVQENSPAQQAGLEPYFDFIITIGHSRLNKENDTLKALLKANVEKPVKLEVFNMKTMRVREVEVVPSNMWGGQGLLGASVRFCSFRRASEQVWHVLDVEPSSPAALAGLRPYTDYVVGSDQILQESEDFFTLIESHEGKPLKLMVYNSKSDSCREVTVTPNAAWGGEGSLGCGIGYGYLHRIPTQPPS
Sequence of GRIP2_6, Q9C0E4 (Q9C0E4 648-740): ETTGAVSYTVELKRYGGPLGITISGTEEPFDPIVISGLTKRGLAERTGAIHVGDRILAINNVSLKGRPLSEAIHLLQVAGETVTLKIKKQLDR
Sequence of GRIP2_7, Q9C0E4 (Q9C0E4 934-1023): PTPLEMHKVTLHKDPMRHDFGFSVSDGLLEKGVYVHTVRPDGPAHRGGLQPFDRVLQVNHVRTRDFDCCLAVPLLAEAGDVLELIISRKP
Sequence of MAGI1_2, Q96QZ7 (Q96QZ7 456-580): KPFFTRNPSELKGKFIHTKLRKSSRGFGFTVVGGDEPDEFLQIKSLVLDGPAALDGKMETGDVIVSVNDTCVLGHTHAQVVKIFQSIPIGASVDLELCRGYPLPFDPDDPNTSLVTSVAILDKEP
Sequence of LAP2, Q96RT1 (Q96RT1 other isoform, or with tags, fused parts or gaps): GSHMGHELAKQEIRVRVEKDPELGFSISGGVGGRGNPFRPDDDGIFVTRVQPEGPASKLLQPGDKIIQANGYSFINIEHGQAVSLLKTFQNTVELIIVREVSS
Sequence of FRMPD2_1, Q68DX3 (Q68DX3 770-861): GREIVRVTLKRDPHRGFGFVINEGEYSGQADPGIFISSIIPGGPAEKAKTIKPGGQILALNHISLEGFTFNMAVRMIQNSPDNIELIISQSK
Sequence of DLG4_3, P78352 (P78352 306-403): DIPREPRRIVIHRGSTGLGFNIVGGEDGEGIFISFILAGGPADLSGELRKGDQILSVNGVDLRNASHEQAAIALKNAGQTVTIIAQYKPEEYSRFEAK
Sequence of LNX1_3, Q8TBB1 (Q8TBB1 500-596): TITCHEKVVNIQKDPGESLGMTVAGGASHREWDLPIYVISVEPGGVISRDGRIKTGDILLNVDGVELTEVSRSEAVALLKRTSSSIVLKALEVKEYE
Sequence of GIPC2, Q8TF65 (Q8TF65 112-203): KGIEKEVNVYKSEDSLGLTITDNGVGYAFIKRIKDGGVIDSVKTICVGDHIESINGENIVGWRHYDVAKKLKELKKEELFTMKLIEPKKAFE
Sequence of MAGI2_4, Q86UL8 (Q86UL8 772-865): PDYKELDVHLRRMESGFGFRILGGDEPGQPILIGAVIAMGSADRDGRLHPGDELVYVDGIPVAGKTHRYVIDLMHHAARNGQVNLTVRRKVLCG
Sequence of Inadl_2, Q8NI35 (Q8NI35 238-335): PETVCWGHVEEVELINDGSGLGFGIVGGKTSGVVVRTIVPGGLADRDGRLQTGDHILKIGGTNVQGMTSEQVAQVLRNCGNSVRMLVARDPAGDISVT
Sequence of CASK, O14936 (O14936 487-570): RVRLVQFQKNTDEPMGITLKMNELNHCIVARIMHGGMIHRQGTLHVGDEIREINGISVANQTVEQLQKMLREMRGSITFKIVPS
Sequence of LNX1_1, Q8TBB1 (Q8TBB1 261-371): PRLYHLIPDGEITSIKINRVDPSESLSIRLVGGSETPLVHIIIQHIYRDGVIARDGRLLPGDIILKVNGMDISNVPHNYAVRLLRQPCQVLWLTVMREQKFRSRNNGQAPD
Sequence of FRMPD2_2, Q68DX3 (Q68DX3 944-1038): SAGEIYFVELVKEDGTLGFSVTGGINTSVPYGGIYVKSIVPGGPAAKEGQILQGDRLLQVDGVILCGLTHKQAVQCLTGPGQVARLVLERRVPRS
Sequence of FRMPD2_3, Q68DX3 (Q68DX3 1073-1166): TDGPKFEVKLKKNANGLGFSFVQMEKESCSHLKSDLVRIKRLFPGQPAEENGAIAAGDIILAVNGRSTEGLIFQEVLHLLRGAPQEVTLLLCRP

PRVKPQRSKV [PPP1R13L, Q8WUF5]
3.54: APBA1_2, Q02410; [1]
3.67: PDZD7_3, Q9H5P4; [1]
4.01: PDZD2_2, O15018; [1]
3.72: MAGI1_2, Q96QZ7; [1]
below the threshold: RADIL, Q96JH8; [1] | NHERF3_4, Q5T2W1; [1] | GRIP1_3, Q9Y3R0; [1] | MPP7, Q5T2T1; [1] | CASK, O14936; [1] | LNX1_3, Q8TBB1; [1] | PCLO, Q9Y6V0; [1] | GIPC2, Q8TF65; [1] | LNX1_1, Q8TBB1; [1] | MPP6, Q9NZW5; [1] | MAGI2_4, Q86UL8; [1] | GORASP1, Q9BQQ3; [1] | DLG4_3, P78352; [1] | GRIP2_7, Q9C0E4; [1] | LAP2, Q96RT1; [1] | FRMPD2_1, Q68DX3; [1] | Inadl_2, Q8NI35; [1] | FRMPD2_3, Q68DX3; [1] | LIN7B, Q9HAP6; [1] | GRIP2_6, Q9C0E4; [1] | DLG1_1, Q12959; [1] | FRMPD2_2, Q68DX3; [1] | GRIP1_4, Q9Y3R0; [1]

EMDRRPATVV [PLCB4, Q15147]
3.78: FRMPD2_2, Q68DX3; [1]
3.79: APBA1_2, Q02410; [1]
3.67: GRIP2_6, Q9C0E4; [1]
3.63: GRIP2_7, Q9C0E4; [1]
3.48: GIPC2, Q8TF65; [1]
3.95: DLG4_3, P78352; [1]
3.71: PCLO, Q9Y6V0; [1]
below the threshold: NHERF3_4, Q5T2W1; [1] | GRIP1_3, Q9Y3R0; [1] | MPP7, Q5T2T1; [1] | MAGI1_2, Q96QZ7; [1] | CASK, O14936; [1] | LNX1_3, Q8TBB1; [1] | MPP6, Q9NZW5; [1] | LAP2, Q96RT1; [1] | LIN7B, Q9HAP6; [1] | GRIP1_4, Q9Y3R0; [1]
4.06: GORASP1, Q9BQQ3; [1]
3.99: RADIL, Q96JH8; [1]
5.03: PDZD7_3, Q9H5P4; [1]
3.77: MAGI2_4, Q86UL8; [1]
3.87: PDZD2_2, O15018; [1]
4.01: LNX1_1, Q8TBB1; [1] | FRMPD2_3, Q68DX3; [1]
3.97: FRMPD2_1, Q68DX3; [1]
4.2: DLG1_1, Q12959; [1]

NDPAWDETNL [ARHGEF7, Q14155;Q14155-1]
4.46: LAP2, Q96RT1; [1]
4.24: PDZD7_3, Q9H5P4; [1]
below the threshold: RADIL, Q96JH8; [1] | NHERF3_4, Q5T2W1; [1] | GRIP1_3, Q9Y3R0; [1] | MPP7, Q5T2T1; [1] | MAGI1_2, Q96QZ7; [1] | CASK, O14936; [1] | LNX1_3, Q8TBB1; [1] | PCLO, Q9Y6V0; [1] | LNX1_1, Q8TBB1; [1] | MPP6, Q9NZW5; [1] | MAGI2_4, Q86UL8; [1] | GORASP1, Q9BQQ3; [1] | DLG4_3, P78352; [1] | GRIP2_7, Q9C0E4; [1] | FRMPD2_1, Q68DX3; [1] | Inadl_2, Q8NI35; [1] | FRMPD2_3, Q68DX3; [1] | LIN7B, Q9HAP6; [1] | GRIP2_6, Q9C0E4; [1] | DLG1_1, Q12959; [1] | FRMPD2_2, Q68DX3; [1] | GRIP1_4, Q9Y3R0; [1]

PSASCAVTAA [PDLIM4, P50479;P50479-2]
below the threshold: RADIL, Q96JH8; [2] | NHERF3_4, Q5T2W1; [2] | GRIP1_3, Q9Y3R0; [2] | MPP7, Q5T2T1; [2] | MAGI1_2, Q96QZ7; [2] | CASK, O14936; [2] | LNX1_3, Q8TBB1; [2] | PCLO, Q9Y6V0; [2] | GIPC2, Q8TF65; [2] | LNX1_1, Q8TBB1; [2] | MPP6, Q9NZW5; [2] | MAGI2_4, Q86UL8; [2] | GORASP1, Q9BQQ3; [2] | DLG4_3, P78352; [2] | GRIP2_7, Q9C0E4; [2] | LAP2, Q96RT1; [2] | FRMPD2_1, Q68DX3; [2] | Inadl_2, Q8NI35; [2] | FRMPD2_3, Q68DX3; [2] | PDZD2_2, O15018; [2] | LIN7B, Q9HAP6; [2] | GRIP2_6, Q9C0E4; [2] | DLG1_1, Q12959; [2] | FRMPD2_2, Q68DX3; [2] | APBA1_2, Q02410; [2] | GRIP1_4, Q9Y3R0; [2]

LSDPSVSTVV [GRIN1, Q05586;Q05586-2]
4.44: PDZD2_2, O15018; [2]
below the threshold: NHERF3_4, Q5T2W1; [2] | GRIP1_3, Q9Y3R0; [2] | MPP7, Q5T2T1; [2] | MAGI1_2, Q96QZ7; [2] | CASK, O14936; [2] | LNX1_3, Q8TBB1; [2] | PCLO, Q9Y6V0; [2] | GIPC2, Q8TF65; [2] | MPP6, Q9NZW5; [2] | GORASP1, Q9BQQ3; [2] | DLG4_3, P78352; [2] | GRIP2_7, Q9C0E4; [2] | LAP2, Q96RT1; [2] | FRMPD2_1, Q68DX3; [2] | Inadl_2, Q8NI35; [2] | FRMPD2_3, Q68DX3; [2] | LIN7B, Q9HAP6; [2] | GRIP2_6, Q9C0E4; [2] | FRMPD2_2, Q68DX3; [2] | APBA1_2, Q02410; [2] | GRIP1_4, Q9Y3R0; [2]
4.54: PDZD7_3, Q9H5P4; [2]
4.17: LNX1_1, Q8TBB1; [2]
3.98: RADIL, Q96JH8; [2]
4.06: DLG1_1, Q12959; [2]
